Assay results from paper PMC4551323 (Molecular Biology of the Cell, 2015).

Target: HA-tagged type II TGF-β receptor (TβRII) (human, UniProt P37173 23-567)
Assay: patch/FRAP

HA-tagged type II TGF-β receptor (TβRII), sequence (P37173 23-567): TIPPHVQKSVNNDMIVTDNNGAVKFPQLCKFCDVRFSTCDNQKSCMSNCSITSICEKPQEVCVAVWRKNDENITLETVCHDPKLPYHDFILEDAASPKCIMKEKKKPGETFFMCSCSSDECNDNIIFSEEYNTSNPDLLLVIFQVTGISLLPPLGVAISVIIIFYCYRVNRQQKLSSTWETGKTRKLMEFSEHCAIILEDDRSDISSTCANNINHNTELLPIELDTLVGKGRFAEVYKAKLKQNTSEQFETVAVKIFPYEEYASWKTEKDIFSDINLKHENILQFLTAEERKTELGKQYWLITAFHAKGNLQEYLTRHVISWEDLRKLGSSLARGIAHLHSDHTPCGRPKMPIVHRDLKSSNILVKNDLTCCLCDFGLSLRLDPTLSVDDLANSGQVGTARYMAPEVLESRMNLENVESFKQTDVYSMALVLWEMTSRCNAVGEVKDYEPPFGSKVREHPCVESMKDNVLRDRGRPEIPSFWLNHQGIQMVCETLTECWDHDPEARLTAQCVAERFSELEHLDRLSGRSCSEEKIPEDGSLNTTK

B1: myc-tagged ALK5 (type I TGF-β receptor, TβRI) (receptor)
chain: LQCFCHLCTKDNFTCVTDGLCFVSVTETTDKVIHNSMCIAEIDLIPRDRPFVCAPSSKTGSVTTTYCCNQDHCNKIELPTTVKSSPGLGPVELAAVIAGPVCFVCISLMLMVYICHNRTVIHHRVPNEEDPSLDRPFISEGTTLKDLIYDMTTSGSGSGLPLLVQRTIARTIVLQESIGKGRFGEVWRGKWRGEEVAVKIFSSREERSWFREAEIYQTVMLRHENILGFIAADNKDNGTWTQLWLVSDYHEHGSLFDYLNRYTVTVEGMIKLALSTASGLAHLHMEIVGTQGKPAIAHRDLKSKNILVKKNGTCCIADLGLAVRHDSATDTIDIAPNHRVGTKRYMAPEVLDDSINMKHFESFKRADIYAMGLVFWEIARRCSIGGIHEDYQLPYYDLVPSDPSVEEMRKVVCEQKLRPNIPNRWQSCEALRVMAKIMRECWYANGAARLTALRIKKTLSQLSQQEGIKM
fold increase of complex formation with TGF-β1 against no ligand: ~2 fold
